Measured values from patent US20220363757A1.

Key:
Assay in all cases: SPR, Fab over captured mutant LAG-3-Fc
[1] = molecular target: human LAG-3 domain 1-2 Fc fusion, chimeric construct #1 (mutated region AA 23-30) (human) (UniProt P18627)
[2] = molecular target: human LAG-3 domain 1-2 Fc fusion, chimeric construct #15 (mutated region AA 95-100) (human) (UniProt P18627)
[3] = molecular target: human LAG-3 domain 1-2 Fc fusion, chimeric construct #16 (mutated region AA 98-105) (human) (UniProt P18627)
[4] = molecular target: human LAG-3 domain 1-2 Fc fusion, chimeric construct #26 (mutated region AA 157-161) (human) (UniProt P18627)
[5] = molecular target: human LAG-3 domain 1-2 Fc fusion, chimeric construct #9 (mutated region AA 66-71) (human) (UniProt P18627)
[6] = molecular target: human LAG-3 domain 1-2 Fc fusion, point mutation #11 L56A (human) (UniProt P18627)
[7] = molecular target: human LAG-3 domain 1-2 Fc fusion, point mutation #2 Q41A (human) (UniProt P18627)
[8] = molecular target: human LAG-3 domain 1-2 Fc fusion, point mutation #21 A74S (human) (UniProt P18627)
[9] = molecular target: human LAG-3 domain 1-2 Fc fusion, point mutation #23 P76A (human) (UniProt P18627)
[10] = molecular target: human LAG-3 domain 1-2 Fc fusion, point mutation #24 G77A (human) (UniProt P18627)
[11] = molecular target: human LAG-3 domain 1-2 Fc fusion, point mutation #26 P79A (human) (UniProt P18627)
[12] = molecular target: human LAG-3 domain 1-2 Fc fusion, point mutation #28 A81S (human) (UniProt P18627)
[13] = molecular target: human LAG-3 domain 1-2 Fc fusion, point mutation #3 P43A (human) (UniProt P18627)
[14] = molecular target: human LAG-3 domain 1-2 Fc fusion, point mutation #30 G83A (human) (UniProt P18627)
[15] = molecular target: human LAG-3 domain 1-2 Fc fusion, point mutation #38 S91A (human) (UniProt P18627)
[16] = molecular target: human LAG-3 domain 1-2 Fc fusion, point mutation #41 P94A (human) (UniProt P18627)
[17] = molecular target: human LAG-3 domain 1-2 Fc fusion, point mutation #44 R97A (human) (UniProt P18627)
[18] = molecular target: human LAG-3 domain 1-2 Fc fusion, point mutation #45 R98A (human) (UniProt P18627)
[19] = molecular target: human LAG-3 domain 1-2 Fc fusion, point mutation #46 Y99A (human) (UniProt P18627)
[20] = molecular target: human LAG-3 domain 1-2 Fc fusion, point mutation #48 V101A (human) (UniProt P18627)
[21] = molecular target: human LAG-3 domain 1-2 Fc fusion, point mutation #49 G105A (human) (UniProt P18627)
[22] = molecular target: human LAG-3 domain 1-2 Fc fusion, point mutation #51 G107A (human) (UniProt P18627)
[23] = molecular target: human LAG-3 domain 1-2 Fc fusion, point mutation #53 L109A (human) (UniProt P18627)
[24] = molecular target: human LAG-3 domain 1-2 Fc fusion, point mutation #54 R110A (human) (UniProt P18627)
[25] = molecular target: human LAG-3 domain 1-2 Fc fusion, point mutation #56 G112A (human) (UniProt P18627)
[26] = molecular target: human LAG-3 domain 1-2 Fc fusion, point mutation #58 P115A (human) (UniProt P18627)
[27] = molecular target: human LAG-3 domain 1-2 Fc fusion, point mutation #60 P118A (human) (UniProt P18627)
[28] = molecular target: human LAG-3 domain 1-2 Fc fusion, point mutation #63 D123A (human) (UniProt P18627)
[29] = molecular target: human LAG-3 domain 1-2 Fc fusion, point mutation #69 R129A (human) (UniProt P18627)
[30] = molecular target: human LAG-3 domain 1-2 Fc fusion, point mutation #71 D131A (human) (UniProt P18627)
[31] = molecular target: human LAG-3 domain 1-2 Fc fusion, point mutation #73 R137A (human) (UniProt P18627)
[32] = molecular target: human LAG-3 domain 1-2 Fc fusion, point mutation #76 D143A (human) (UniProt P18627)
[33] = molecular target: human LAG-3 domain 1-2 Fc fusion, point mutation #80 R163A (human) (UniProt P18627)
Chain of human LAG-3 domain 1-2 Fc fusion, point mutation #80 R163A (human) (P18627 23-266 R163A): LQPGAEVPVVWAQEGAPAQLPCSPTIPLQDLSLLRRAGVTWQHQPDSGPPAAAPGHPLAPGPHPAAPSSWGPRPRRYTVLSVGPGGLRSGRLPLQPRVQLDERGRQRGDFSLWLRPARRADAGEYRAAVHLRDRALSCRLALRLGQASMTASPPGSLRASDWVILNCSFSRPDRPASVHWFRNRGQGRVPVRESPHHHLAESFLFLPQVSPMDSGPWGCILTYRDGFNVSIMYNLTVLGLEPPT

Chain of human LAG-3 domain 1-2 Fc fusion, point mutation #49 G105A (human) (P18627 23-266 G105A): as the sequence (P18627 23-266 R163A) above, with G83A, A141R counted along it
Chain of human LAG-3 domain 1-2 Fc fusion, point mutation #63 D123A (human) (P18627 23-266 D123A): as the sequence (P18627 23-266 R163A) above, with D101A, A141R counted along it
Chain of human LAG-3 domain 1-2 Fc fusion, point mutation #45 R98A (human) (P18627 23-266 R98A): as the sequence (P18627 23-266 R163A) above, with R76A, A141R counted along it
Chain of human LAG-3 domain 1-2 Fc fusion, point mutation #46 Y99A (human) (P18627 23-266 Y99A): as the sequence (P18627 23-266 R163A) above, with Y77A, A141R counted along it
Chain of human LAG-3 domain 1-2 Fc fusion, point mutation #48 V101A (human) (P18627 23-266 V101A): as the sequence (P18627 23-266 R163A) above, with V79A, A141R counted along it
Chain of human LAG-3 domain 1-2 Fc fusion, point mutation #51 G107A (human) (P18627 23-266 G107A): as the sequence (P18627 23-266 R163A) above, with G85A, A141R counted along it
Chain of human LAG-3 domain 1-2 Fc fusion, point mutation #56 G112A (human) (P18627 23-266 G112A): as the sequence (P18627 23-266 R163A) above, with G90A, A141R counted along it
Chain of human LAG-3 domain 1-2 Fc fusion, point mutation #26 P79A (human) (P18627 23-266 P79A): as the sequence (P18627 23-266 R163A) above, with P57A, A141R counted along it
Chain of human LAG-3 domain 1-2 Fc fusion, point mutation #73 R137A (human) (P18627 23-266 R137A): as the sequence (P18627 23-266 R163A) above, with R115A, A141R counted along it
Chain of human LAG-3 domain 1-2 Fc fusion, chimeric construct #16 (mutated region AA 98-105) (human) (P18627 other isoform, or with tags, fused parts or gaps mutant): as the sequence (P18627 23-266 R163A) above, with R76S, T78V, S81M, V82R, G83A, A141R counted along it
Chain of human LAG-3 domain 1-2 Fc fusion, point mutation #28 A81S (human) (P18627 23-266 A81S): as the sequence (P18627 23-266 R163A) above, with A59S, A141R counted along it
Chain of human LAG-3 domain 1-2 Fc fusion, chimeric construct #26 (mutated region AA 157-161) (human) (P18627 other isoform, or with tags, fused parts or gaps mutant): as the sequence (P18627 23-266 R163A) above, with A135D, L136F, R139S, A141R counted along it
Chain of human LAG-3 domain 1-2 Fc fusion, point mutation #23 P76A (human) (P18627 23-266 P76A): as the sequence (P18627 23-266 R163A) above, with P54A, A141R counted along it
Chain of human LAG-3 domain 1-2 Fc fusion, point mutation #21 A74S (human) (P18627 23-266 A74S): as the sequence (P18627 23-266 R163A) above, with A52S, A141R counted along it
Chain of human LAG-3 domain 1-2 Fc fusion, point mutation #44 R97A (human) (P18627 23-266 R97A): as the sequence (P18627 23-266 R163A) above, with R75A, A141R counted along it
Chain of human LAG-3 domain 1-2 Fc fusion, chimeric construct #15 (mutated region AA 95-100) (human) (P18627 other isoform, or with tags, fused parts or gaps mutant): as the sequence (P18627 23-266 R163A) above, with R73G, R76S, T78V, A141R counted along it
Chain of human LAG-3 domain 1-2 Fc fusion, point mutation #60 P118A (human) (P18627 23-266 P118A): as the sequence (P18627 23-266 R163A) above, with P96A, A141R counted along it
Chain of human LAG-3 domain 1-2 Fc fusion, chimeric construct #1 (mutated region AA 23-30) (human) (P18627 other isoform, or with tags, fused parts or gaps mutant): as the sequence (P18627 23-266 R163A) above, with L1S, Q2G, A5K, V7L, P8S, A141R counted along it

KD mutant/KD wild type [1]: 1.3 fold | KD mutant/KD wild type [2]: 1.5 fold | KD mutant/KD wild type [3]: 1.7 fold | KD mutant/KD wild type [4]: 0.9 fold | KD mutant/KD wild type [5]: 1.3 fold | KD mutant/KD wild type [6]: 0.9 fold | KD mutant/KD wild type [7]: 1 fold | KD mutant/KD wild type [8]: 0.9 fold | KD mutant/KD wild type [9]: 0.9 fold | KD mutant/KD wild type [10]: 1 fold | KD mutant/KD wild type [11]: 0.8 fold | KD mutant/KD wild type [12]: 0.7 fold | KD mutant/KD wild type [13]: 1.2 fold | KD mutant/KD wild type [14]: 1 fold | KD mutant/KD wild type [15]: 2.2 fold | KD mutant/KD wild type [16]: 0.8 fold | KD mutant/KD wild type [17]: 0.9 fold | KD mutant/KD wild type [18]: 0.9 fold | KD mutant/KD wild type [19]: 1 fold | KD mutant/KD wild type [20]: 1 fold | KD mutant/KD wild type [21]: 1 fold | KD mutant/KD wild type [22]: 0.8 fold | KD mutant/KD wild type [23]: 0.9 fold | KD mutant/KD wild type [24]: 0.9 fold | KD mutant/KD wild type [25]: 0.9 fold | KD mutant/KD wild type [26]: 1 fold | KD mutant/KD wild type [27]: 0.8 fold | KD mutant/KD wild type [28]: 1 fold | KD mutant/KD wild type [29]: 1.2 fold | KD mutant/KD wild type [30]: 1.2 fold | KD mutant/KD wild type [31]: 1 fold | KD mutant/KD wild type [32]: 1 fold | KD mutant/KD wild type [33]: 1 fold
Substance: Fab fragment of 25F7-Lag3.5 analogue
